The values that follow are results of earlier work, collected in publication PMC8031367.

The series deals with Cys403 (UniProt position 403, RPVIHCRAGVG). Briefly: chemical modification.

Consider “YopH (Yersinia protein tyrosine phosphatase) (Yersinia pestis (as stated for YopH in this article; the title of the cited source, ref 59, says only 'Yersinia'))”, for which the pKa is 4.67.

The pKa is the negative logarithm of the acid dissociation constant.
